Reference: PMC13381803, “Phage-encoded factor stimulates DNA degradation by the Hna anti-phage defense system” (Nature Communications, 2026)

Columns and labels:
[1] = target: 5 A SSB escape mutant E38K (phage 5 A (T7-like podovirus)); assay: native gel or EMSA; native stoichiometry of wild-type 5 A SSB and escape mutants in the absence of DNA; each protein allowed to oligomerize for 1 hour; non-denaturing 4-20% Tris-glycine gel, 4 °C; part of the wild-type sample melted at 95 °C for the monomeric state
[2] = target: 5 A SSB escape mutant E49A (phage 5 A (T7-like podovirus)); assay: as above
[3] = target: 5 A SSB escape mutant E201K (phage 5 A (T7-like podovirus)); assay: as above
[4] = target: Hna (helicase-nuclease abortive infection), wild type, Sinorhizobium meliloti (Sinorhizobium meliloti)
[5] = target: Hna with a C-terminal GFP tag; assay: fluorescence anisotropy; settings: read off a plot
[6] = target: phage-encoded single-stranded DNA-binding protein of phage 5 A (5 A SSB), wild type (phage 5 A (T7-like podovirus)); assay: native gel or EMSA; native stoichiometry of wild-type 5 A SSB and escape mutants in the absence of DNA; each protein allowed to oligomerize for 1 hour; non-denaturing 4-20% Tris-glycine gel, 4 °C; part of the wild-type sample melted at 95 °C for the monomeric state
[7] = target: Hna (helicase-nuclease abortive infection), wild type, Sinorhizobium meliloti; assay: fluorescence anisotropy competition; settings: in the presence of ATP; cold SSB added to the saturated Hna/GFP-SSB heterodimer; value read at the highest cold SSB concentration (about 2e3 nM); lower …; parent: est. 75; read off a plot
[8] = saturating GFP-Hna homodimer, value read at the highest SSB concentration (about 2e4 nM), starting anisotropy about 100-110 mA, lower anisotropy = more …, parent: est. 22

5 A SSB escape mutant E38K (natural protein)
stoichiometry N [1]: 4

5 A SSB escape mutant E49A (natural protein)
stoichiometry N [2]: 2

5 A SSB escape mutant E201K (natural protein)
stoichiometry N [3]: 4

Hna (helicase-nuclease abortive infection), wild type, Sinorhizobium meliloti (enzyme)
ssDNA cleavage rate of the Hna dimer mutant (T30A/D31A/P34A) compared to wild-type Hna, capillary electrophoresis [4]: > 10 fold

Hna (helicase-nuclease abortive infection), wild type, Sinorhizobium meliloti T30A; D31A; P34A
response ([5]; +ATP, GFP-Hna at fixed concentration, value is the plateau of the fitted curve at high cold Hna concentration, parent: est. 98): 10 mA

phage-encoded single-stranded DNA-binding protein of phage 5 A (5 A SSB), wild type (natural protein)
stoichiometry N [6]: 2

phage-encoded single-stranded DNA-binding protein of phage 5 A (5 A SSB), wild type E38K
response [5, 8]: 99 mA

phage-encoded single-stranded DNA-binding protein of phage 5 A (5 A SSB), wild type E49A
response [5, 8]: 65 mA

phage-encoded single-stranded DNA-binding protein of phage 5 A (5 A SSB), wild type E201K
response [7]: 130 mA
response [5, 8]: 110 mA
